Data: PMC5372222

B1: thrombin 15-mer aptamer protected with PolyA-Oligo10 on AuNP (mixed)
DNA: GGTTGGTGTGGTTGG
?: AAAAAAAAAAAAAAAAAAAACCAACCACAC
modifications: 5'-SH-(CH2)6 thiol on strand 1

Columns and labels:
human alpha-thrombin [1] = biological target: T1, human alpha-thrombin (Homo sapiens, UniProt P00734;P00734 328-363;364-622); experiment: blot with protected Apt-AuNP probe and gold enhancement; thrombin in 10-fold diluted human serum on PVDF; protection DNA 1 uM before 10x dilution; as low as 30 ng detected; binding buffer 100 mM NaCl, 20 mM Tris-HCl, 2 mM MgCl2, 5 mM KCl, 1 mM CaCl2, 0.02% Tween 20; pH and temperature of binding not stated
human alpha-thrombin [2] = biological target: T1, human alpha-thrombin; experiment: blot with Apt-AuNP probe and gold enhancement; thrombin in 10-fold diluted human serum on PVDF; strong background from serum proteins; binding buffer 100 mM NaCl, 20 mM Tris-HCl, 2 mM MgCl2, 5 mM KCl, 1 mM CaCl2, 0.02% Tween 20; pH and temperature of binding not stated

Binder | binding result (human alpha-thrombin [1]) | binding result (human alpha-thrombin [2])
B1 | binds | 
GGTTGGTGTGGTTGG (ssDNA, 5'-SH-(CH2)6 thiol) [thrombin 15-mer aptamer on AuNP (Apt-AuNP)] |  | binds
